Experiments:
Test in all cases: pull-down; GST fusion proteins on glutathione-agarose; His6- or His6-MBP-tagged SF1 proteins in two-fold molar excess; NETN (20 mM Tris-HCl pH 8.0, 50 mM NaCl, 0.5% NP-40, 0.5 mM EDTA), 45 min 4°C; with or without RNase A; western blot with anti-His6
Conditions in all cases: both partners purified
His6-SF1-C370 = biological target: T1, His6-SF1-C370 (human, UniProt Q15637 1-370)
T1 construct: human SF1, amino acids 1–370, the region common to all SF1 isoforms; in pTrcHisA; source: E. coli XL1-Blue, purified (TALON resin, lysis in 8 M urea, dialyzed); not shown: His6, N-terminal, kept
T1 sequence (looked up): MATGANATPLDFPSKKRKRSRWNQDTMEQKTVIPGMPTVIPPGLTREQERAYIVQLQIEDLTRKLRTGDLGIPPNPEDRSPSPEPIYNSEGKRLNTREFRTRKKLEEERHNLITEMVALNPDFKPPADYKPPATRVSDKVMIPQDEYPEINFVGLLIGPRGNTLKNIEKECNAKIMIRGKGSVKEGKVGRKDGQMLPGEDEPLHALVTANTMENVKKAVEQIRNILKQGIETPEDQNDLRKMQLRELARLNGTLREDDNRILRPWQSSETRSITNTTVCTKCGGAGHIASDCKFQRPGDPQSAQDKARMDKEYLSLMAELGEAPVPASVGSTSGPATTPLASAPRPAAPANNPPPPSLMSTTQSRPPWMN

His6-SF1-C327 = biological target: T2, His6-SF1-C327 (human, UniProt Q15637 1-327)
T2 construct: human SF1, C-terminal truncation to residue 327; SF1-C370 is 1–370; source: E. coli XL1-Blue, purified (TALON resin, lysis in 8 M urea, dialyzed); not shown: His6, N-terminal, kept
T2 sequence (looked up): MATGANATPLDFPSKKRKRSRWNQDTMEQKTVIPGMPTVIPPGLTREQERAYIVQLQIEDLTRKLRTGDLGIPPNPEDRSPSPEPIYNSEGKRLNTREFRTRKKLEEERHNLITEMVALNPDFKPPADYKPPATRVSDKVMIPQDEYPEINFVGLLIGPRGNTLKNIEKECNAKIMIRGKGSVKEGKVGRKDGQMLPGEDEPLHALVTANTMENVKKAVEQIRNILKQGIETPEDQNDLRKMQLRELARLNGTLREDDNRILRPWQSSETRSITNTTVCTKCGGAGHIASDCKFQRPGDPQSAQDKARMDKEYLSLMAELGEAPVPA

His6-SF1-C320 = biological target: T3, His6-SF1-C320 (human, UniProt Q15637 1-320)
T3 construct: human SF1, C-terminal truncation to amino acid 320; it follows the naming of the other truncations; also called deletion to amino acid 320; source: E. coli XL1-Blue, purified (TALON resin, lysis in 8 M urea, dialyzed); not shown: His6, N-terminal, kept
T3 sequence (looked up): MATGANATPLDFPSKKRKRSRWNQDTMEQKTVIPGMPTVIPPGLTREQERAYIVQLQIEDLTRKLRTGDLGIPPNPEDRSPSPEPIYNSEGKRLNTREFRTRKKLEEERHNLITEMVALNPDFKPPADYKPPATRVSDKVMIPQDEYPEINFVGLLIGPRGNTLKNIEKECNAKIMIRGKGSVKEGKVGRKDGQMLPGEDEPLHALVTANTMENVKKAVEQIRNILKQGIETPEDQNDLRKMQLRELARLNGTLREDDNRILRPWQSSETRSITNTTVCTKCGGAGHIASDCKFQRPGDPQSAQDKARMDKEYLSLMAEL

His6-SF1-C315 = biological target: T4, His6-SF1-C315 (human, UniProt Q15637 1-315)
T4 construct: source: E. coli XL1-Blue, purified (TALON resin, lysis in 8 M urea, dialyzed); not shown: His6, N-terminal, kept
T4 sequence (looked up): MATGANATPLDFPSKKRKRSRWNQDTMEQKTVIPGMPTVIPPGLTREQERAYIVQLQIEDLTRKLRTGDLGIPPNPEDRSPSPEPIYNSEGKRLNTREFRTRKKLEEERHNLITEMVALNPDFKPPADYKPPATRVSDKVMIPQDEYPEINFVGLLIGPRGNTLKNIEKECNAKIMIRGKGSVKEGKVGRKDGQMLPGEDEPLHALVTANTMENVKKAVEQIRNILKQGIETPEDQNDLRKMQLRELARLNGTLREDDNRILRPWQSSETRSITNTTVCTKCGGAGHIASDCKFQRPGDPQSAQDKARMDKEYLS

His6-SF1-C302 = biological target: T5, His6-SF1-C302 (human, UniProt Q15637 1-302)
T5 construct: source: E. coli XL1-Blue, purified (TALON resin, lysis in 8 M urea, dialyzed); not shown: His6, N-terminal, kept
T5 sequence (looked up): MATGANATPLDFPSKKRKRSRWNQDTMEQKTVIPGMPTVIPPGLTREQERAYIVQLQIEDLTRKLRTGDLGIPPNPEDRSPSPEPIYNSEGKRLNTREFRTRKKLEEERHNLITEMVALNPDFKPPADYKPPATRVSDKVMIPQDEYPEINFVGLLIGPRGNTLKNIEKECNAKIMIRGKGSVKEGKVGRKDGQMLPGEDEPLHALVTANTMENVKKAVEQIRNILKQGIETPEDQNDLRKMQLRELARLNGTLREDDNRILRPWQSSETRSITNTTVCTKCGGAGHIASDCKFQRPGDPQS

[1] = biological target: T6, His6-MBP-SF1-C370 Δ306–326 (human, UniProt Q15637 1-370, Δ306–326, replaced by one KpnI site encoding Gly and Thr)
T6 construct: in pETMBP-1a; source: E. coli BL21, purified (TALON resin, lysis in 8 M urea, dialyzed); not shown: His6, N-terminal, kept; MBP, N-terminal, kept
T6 sequence (looked up): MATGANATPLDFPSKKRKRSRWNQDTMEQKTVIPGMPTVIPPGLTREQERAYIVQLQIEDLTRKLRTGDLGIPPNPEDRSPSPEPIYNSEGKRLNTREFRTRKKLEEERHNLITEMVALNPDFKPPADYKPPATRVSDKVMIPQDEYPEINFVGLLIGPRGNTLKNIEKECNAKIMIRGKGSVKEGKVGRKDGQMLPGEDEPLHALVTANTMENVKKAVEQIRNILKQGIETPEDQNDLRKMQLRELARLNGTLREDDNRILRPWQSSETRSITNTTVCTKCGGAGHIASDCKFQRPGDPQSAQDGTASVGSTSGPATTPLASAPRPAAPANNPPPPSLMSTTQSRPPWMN

Measured: binding result

B1: GST-U2AF65-UHM (domain or fragment, UniProt P26368 367-475, looked up)
chain: QVQMGGHPTEVLCLMNMVLPEELLDDEEYEEIVEDVRDECSKYGLVKSIEIPRPVDGVEVPGCGKIFVEFTSVFDCQKAMQGLTGRKFANRVVVTKYCDPDSYHRRDFW
notes: U2AF homology motif (UHM) of U2AF65, amino acids 367–475; also called U2AF homology motif of U2AF65; source: E. coli XL1-Blue, purified (glutathione agarose)
binds: all assays above

B2: GST-SF3a120-SURP1 (domain or fragment, UniProt Q15459 38-113, looked up)
chain: PVVGIIYPPPEVRNIVDKTASFVARNGPEFEARIRQNEINNPKFNFLNPNDPYHAYYRHKVSEFKEGKAQEPSAAI
notes: SURP1 of SF3a120, amino acids 38–113, in pDEST15; also called SURP1 of SF3a120; source: E. coli BL21, purified (glutathione agarose)
binds: His6-SF1-C370 | His6-SF1-C327

B3: GST-CHERP-SURP (domain or fragment, UniProt Q8IWX8 1-75, looked up)
chain: MEMPLPPDDQELRNVIDKLAQFVARNGPEFEKMTMEKQKDNPKFSFLFGGEFYSYYKCKLALEQQQLICKQQTPE
notes: single SURP domain of CHERP, amino acids 1–75, in pDEST15; also called single SURP domain of CHERP; source: E. coli BL21, purified (glutathione agarose)
binds: His6-SF1-C370 | His6-SF1-C327

— PMC4666396, “Mammalian splicing factor SF1 interacts with SURP domains of U2 snRNP-associated proteins” (Nucleic Acids Research, 2015)
